Data on seven molecules can be found in patent publication US20170267778A1 (ADC THERPEUTICS S A, published 2017).

To fix the notation:
B1: Ab5 (antibody, human IgG1, V domains shown)
VH: EVQLVQSGAEVKKPGESLKISCKISGYIFTDHAIHWVRQMPGKGLEWMGHFSPGNTDIKYNDKFKGQVTLSVDRSINTAYLQWSSLKASDTAIYFCKTSTFFFDYWGQGTRVTVSS
VL: DIVMTQSPLSLPVTPGEPASISCKSSQSLLNSGDQKNYLTWYLQKPGQSPQLLIYWASTRESGVPDRFSGSGSGTDFTLKISRVEAEDVGVYYCQNDYSYPLTFGGGTKVEIK
notes: Expressed as human IgG1/kappa from pFUSE-CHIg-hG1 and pFUSE2-CLIg-hk vectors; also called 5E5RHB10 / 5E5RKB
B2: Ab6 (antibody, human IgG1, V domains shown)
VH: EVQLVESGAEVKKPGASVEVSCQASGYTFTDHAIHWVRQAPGQGLEWMGHFSPGNTDIKYNDKFKGRVTMTVDRSINTAYMELRRLRSDDTAVYYCKTSTFFFDYWGQGTMVTVSS
VL: B1 VL
notes: Expressed as human IgG1/kappa from pFUSE-CHIg-hG1 and pFUSE2-CLIg-hk vectors; also called 5E5RHC9 / 5E5RKB
B3: Ab4 (antibody, human IgG1, V domains shown)
VH: QVQLVQSGAEVKKTGSSVKVSCKASGYTFTDHAIHWVRQAPGQALEWMGHFSPGNTDIKYNDKFKGRVTLTVDRSMSTAYMELSSLRSEDTAMYYCKTSTFFFDYWGQGTMVTVSS
VL: B1 VL
notes: Expressed as human IgG1/kappa from pFUSE-CHIg-hG1 and pFUSE2-CLIg-hk vectors; also called 5E5RHA8 / 5E5RKB
B4: Ab2 (antibody, V domains shown)
VH: B1 VH
VL: DIVMTQSPDSLAVSLGERATINCKSSQSLLNSGDQKNYLTWYQQKPGQPPKLLIYWASTRESGVPDRFSGSGSGTDFTLTISSLQAEDVAVYYCQNDYSYPLTFGQGTKVEIK
notes: Expressed as human IgG1/kappa from pFUSE-CHIg-hG1 and pFUSE2-CLIg-hk vectors; also called 5E5RHB10 / 5E5RKA
B5: Ab1 (antibody, V domains shown)
VH: B3 VH
VL: B4 VL
notes: Expressed as human IgG1/kappa from pFUSE-CHIg-hG1 and pFUSE2-CLIg-hk vectors; also called 5E5RHA8 / 5E5RKA
B6: Ab3 (antibody, V domains shown)
VH: B2 VH
VL: B4 VL
notes: Expressed as human IgG1/kappa from pFUSE-CHIg-hG1 and pFUSE2-CLIg-hk vectors; also called 5E5RHC9 / 5E5RKA
B7: Mouse 5E5 (antibody, V domains shown)
VH: QVQLQQSDAELVKPGSSVKISCKASGYTFTDHAIHWVKQKPEQGLEWIGHFSPGNTDIKYNDKFKGKATLTVDRSSSTAYMQLNSLTSEDSAVYFCKTSTFFFDYWGQGTTLTVSS
VL: DIVMTQSPSSLTVTAGEKVTMICKSSQSLLNSGDQKNYLTWYQQKPGQPPKLLIFWASTRESGVPDRFTGSGSGTDFTLTISSVQAEDLAVYYCQNDYSYPLTFGAGTKLELK
notes: V regions were subcloned into pFUSE-CHIg-hG1 (human IgG1) and pFUSE2-CLIg-hk (human kappa) vectors and expressed in HEK293 cells; also called mouse 5E5 antibody; 5E5VH/5E5VK

In this experiment the target is T1, 16TR-MUC1-Tn (human, UniProt P15941 126-445, limits assumed, Tn glycoform (GalNAcα1-O-Ser/Thr); glycosylated sites of the reagent not stated).
T1 construct: domain: 16TR; also called Tn-MUC1; TnMUC1
T1 sequence (P15941 126-445 limits assumed): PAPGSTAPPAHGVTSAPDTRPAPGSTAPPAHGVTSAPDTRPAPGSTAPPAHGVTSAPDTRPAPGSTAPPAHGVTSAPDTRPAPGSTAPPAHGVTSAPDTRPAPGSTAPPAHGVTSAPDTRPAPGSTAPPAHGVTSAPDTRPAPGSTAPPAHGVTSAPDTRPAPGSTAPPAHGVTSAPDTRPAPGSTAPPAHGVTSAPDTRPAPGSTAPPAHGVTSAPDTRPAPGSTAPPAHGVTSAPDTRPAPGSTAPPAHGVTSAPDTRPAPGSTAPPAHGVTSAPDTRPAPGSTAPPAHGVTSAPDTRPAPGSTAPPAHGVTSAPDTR
Kind of experiment: Tn-MUC1 binding ELISA (protocol 4), plate-coated 16TR-MUC1-Tn. A general note: An ELISA detects its analyte on a solid surface through an enzyme-linked reagent.
With B1, the midpoint of the response, the EC50, lay at 0.0269 µg/mL.
For the molecule B2, the EC50 (usually the concentration needed to bring the measured effect to its halfway point) is 0.0198 µg/mL.
The figure for B3 is 0.0755 µg/mL.
B4 came in with an EC50 of 0.0345 µg/mL.
The figure for B5 is 0.0246 µg/mL; for B6 it is 0.0615 µg/mL.
The figure for B7 is 0.0311 µg/mL.
